Drawing on patent publication US20200354451A1, this text covers IFN-gamma secretion (ELISA), Hela-CD19 target cells for one substance.

This test concerns the target human CD19 (human) (UniProt P15391). The test can be described thus: cell-based or functional assay.
Sequence of UniProt P15391 (P15391 20-556): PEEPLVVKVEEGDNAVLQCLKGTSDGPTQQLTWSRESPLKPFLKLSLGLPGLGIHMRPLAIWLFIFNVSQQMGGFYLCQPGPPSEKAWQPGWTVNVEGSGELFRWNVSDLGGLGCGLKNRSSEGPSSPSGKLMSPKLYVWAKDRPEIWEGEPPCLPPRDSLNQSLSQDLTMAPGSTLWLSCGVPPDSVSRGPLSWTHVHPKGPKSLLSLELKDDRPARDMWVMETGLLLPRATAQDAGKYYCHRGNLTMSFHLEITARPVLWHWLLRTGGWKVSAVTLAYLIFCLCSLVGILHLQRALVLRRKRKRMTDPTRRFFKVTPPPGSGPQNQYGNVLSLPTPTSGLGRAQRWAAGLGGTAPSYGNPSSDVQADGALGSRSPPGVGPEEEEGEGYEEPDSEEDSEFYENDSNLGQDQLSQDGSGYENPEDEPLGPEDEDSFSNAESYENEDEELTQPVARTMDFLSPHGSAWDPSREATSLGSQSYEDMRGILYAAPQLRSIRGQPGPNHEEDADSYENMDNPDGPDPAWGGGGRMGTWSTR

CD19 CAR (mouse FMC63 scFv, no TF) gave an IFN-gamma secretion (ELISA), Hela-CD19 target cells of 8870 pg/mL.
